We go through five molecules from article doi:10.1101/2021.02.22.432116 (bioRxiv, 2021).

B1: UBQLN2 UBA domain (UBQLN2 571-624) (domain or fragment, human, UniProt Q9UHD9 571-624, looked up)
chain: NAPQLPNPEVRFQQQLEQLNAMGFLNREANLQALIATGGDINAAIERLLGSQPS
B2: UBQLN2 UBL domain (UBQLN2 1-107) (domain or fragment, human, UniProt Q9UHD9 1-107, looked up)
chain: MAENGESSGPPRPSRGPAAAQGSAAAPAEPKIIKVTVKTPKEKEEFAVPENSSVQQFKEAISKRFKSQTDQLVLIFAGKILKDQDTLIQHGIHDGLTVHLVIKSQNR
B4: UBQLN2 109-576 (domain or fragment, human, UniProt Q9UHD9 109-576, looked up)
chain: QGQSTQPSNAAGTNTTSASTPRSNSTPISTNSNPFGLGSLGGLAGLSSLGLSSTNFSELQSQMQQQLMASPEMMIQIMENPFVQSMLSNPDLMRQLIMANPQMQQLIQRNPEISHLLNNPDIMRQTLEIARNPAMMQEMMRNQDLALSNLESIPGGYNALRRMYTDIQEPMLNAAQEQFGGNPFASVGSSSSSGEGTQPSRTENRDPLPNPWAPPPATQSSATTSTTTSTGSGSGNSSSNATGNTVAAANYVASIFSTPGMQSLLQQITENPQLIQNMLSAPYMRSMMQSLSQNPDLAAQMMLNSPLFTANPQLQEQMRPQLPAFLQQMQNPDTLSAMSNPRAMQALMQIQQGLQTLATEAPGLIPSFTPGVGVGVLGTAIGPVGPVTPIGPIGPIVPFTPIGPIGPIGPTGPAAPPGSTGSGGPTGPTVSSAAPSETTSPTSESGPNQQFIQQMVQALAGANAPQLP
B5: UBQLN2 248-576 (domain or fragment, human, UniProt Q9UHD9 248-576, looked up)
chain: MRNQDLALSNLESIPGGYNALRRMYTDIQEPMLNAAQEQFGGNPFASVGSSSSSGEGTQPSRTENRDPLPNPWAPPPATQSSATTSTTTSTGSGSGNSSSNATGNTVAAANYVASIFSTPGMQSLLQQITENPQLIQNMLSAPYMRSMMQSLSQNPDLAAQMMLNSPLFTANPQLQEQMRPQLPAFLQQMQNPDTLSAMSNPRAMQALMQIQQGLQTLATEAPGLIPSFTPGVGVGVLGTAIGPVGPVTPIGPIGPIVPFTPIGPIGPIGPTGPAAPPGSTGSGGPTGPTVSSAAPSETTSPTSESGPNQQFIQQMVQALAGANAPQLP

Holding throughout (test): NMR titration
The target of experiment [1] is B2.
Experiment [2] has as its target B4.
The target of the next experiment is UBQLN2 178-576 (human, UniProt Q9UHD9 178-576).
The target in the experiment “UBQLN2 248-576” is B5.
The next experiment addresses UBQLN2 379-576 (human, UniProt Q9UHD9 379-576).
For experiment [3], the target named is B4. The source holds these as a separate data set.
The target in experiment [4] is B1.
Experiment [5] deals with B2. This is another data set of the same source.

“And” between values parts separate entries of the source, which are not always exact repeats. Equal entries are not always repeated. Where two headings read alike, the source gives them in different places.

On to B1, for which the Kd – broadly, the free concentration of one partner at which half of the binding sites on the other are occupied at equilibrium, for simple one-to-one binding – in experiment [1] is 178 µM and 210 µM.
Regarding B2, the binding result with UBQLN2 109-576 [2], in the experiment with UBQLN2 178-576, with UBQLN2 248-576 and with UBQLN2 379-576 was “binds” throughout.

B3: UBQLN2 UBL I80A (domain or fragment, human, UniProt Q9UHD9 1-107, looked up)
chain: MAENGESSGPPRPSRGPAAAQGSAAAPAEPKIIKVTVKTPKEKEEFAVPENSSVQQFKEAISKRFKSQTDQLVLIFAGKALKDQDTLIQHGIHDGLTVHLVIKSQNR
As to B3, in the experiment with UBQLN2 109-576 [3], the binding result is “binds”.
B4: the “UBA peak intensity relative to isolated UBA” value in experiment [4] turned out to be 60%.
Regarding B5, the “UBL peak intensity relative to isolated UBL” value in experiment [5] is 70%.
